Data as given in patent US20040110684.

Molecular target: synthetic peptides derived from the caveolin scaffolding domain (CSD)

B1: endothelial nitric oxide synthase (eNOS), endogenous, human umbilical vein endothelial cells (HUVECs) (protein)
chain: GNLKSVAQEPGPPCGLGLGLGLGLCGKQGPATPAPEPSRAPASLLPPAPEHSPPSSPLTQPPEGPKFPRVKNWEVGSITYDTLSAQAQQDGPCTPRRCLGSLVFPRKLQGRPSPGPPAPEQLLSQARDFINQYYSSIKRSGSQAHEQRLQEVEAEVAATGTYQLRESELVFGAKQAWRNAPRCVGRIQWGKLQVFDARDCRSAQEMFTYICNHIKYATNRGNLRSAITVFPQRCPGRGDFRIWNSQLVRYAGYRQQDGSVRGDPANVEITELCIQHGWTPGNGRFDVLPLLLQAPDDPPELFLLPPELVLEVPLEHPTLEWFAALGLRWYALPAVSNMLLEIGGLEFPAAPFSGWYMSTEIGTRNLCDPHRYNILEDVAVCMDLDTRTTSSLWKDKAAVEINVAVLHSYQLAKVTIVDHHAATASFMKHLENEQKARGGCPADWAWIVPPISGSLTPVFHQEMVNYFLSPAFRYQPDPWKGSAAKGTGITRKKTFKEVANAVKISASLMGTVMAKRVKATILYGSETGRAQSYAQQLGRLFRKAFDPRVLCMDEYDVVSLEHETLVLVVTSTFGNGDPPENGESFAAALMEMSGPYNSSPRPEQHKSYKIRFNSISCSDPLVSSWRRKRKESSNTDSAGALGTLRFCVFGLGSRAYPHFCAFARAVDTRLEELGGERLLQLGQGDELCGQEEAFRGWAQAAFQAACETFCVGEDAKAAARDIFSPKRSWKRQRYRLSAQAEGLQLLPGLIHVHRRKMFQATIRSVENLQSSKSTRATILVRLDTGGQEGLQYQPGDHIGVCPPNRPGLVEALLSRVEDPPAPTEPVAVEQLEKGSPGGPPPGWVRDPRLPPCTLRQALTFFLDITSPPSPQLLRLLSTLAEEPREQQELEALSQDPRRYEEWKWFRCPTLLEVLEQFPSVALPAPLLLTQLPLLQPRYYSVSSAPSTHPGEIHLTVAVLAYRTQDGLGPLHYGVCSTWLSQLKPGDPVPCFIRGAPSFRLPPDPSLPCILVGPGTGIAPFRGFWQERLHDIESKGLQPTPMTLVFGCRCSQLDHLYRDEVQNAQQRGVFGRVLTAFSREPDNPKTYVQDILRTELAAEVHRVLCLERGHMFVCGDVTMATNVLQTVQRILATEGDMELDEAGDVIGVLRDQQRYHEDIFGLTLRTQEVTSRIRTQSFSLQERQLRGAVPWAFDPPGSDTNSP
  phosphorylation of eNOS (Ser1177) in atorvastatin-treated HUVECs, immunoblot: blocked the phosphorylation of eNOS
